# Results as given in the supplement of paper PMC9732359.
# ± gives the uncertainty stated by the source.
# Test: protein stability index of a GFP-peptide fusion (yeast GPS) (PSI 1-4); higher = more stable; sorted into four equal gates, so the index is relative within each strain
# Method in brief: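 Tiled yeast protein peptides of 17 residues were each joined downstream of GFP, on plasmids that also express Cherry. The pooled library was maintained in yeast, and mid-log cultures in leucine-free medium were sorted into four equal gates on the GFP/Cherry ratio. Plasmids from every gate were amplified by PCR and sequenced on Illumina, with barcodes linking reads to strains. The protein stability index of a peptide is its gate-number-weighted read frequency summed over the gates.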
Sequence,protein stability index (doa10∆),protein stability index (pdr5∆),protein stability index (san1∆),protein stability index (ubr1∆)
ESWFKALAGSEINWRHA [FAS1],3.31 ± 0.11,2.54 ± 0.081,2.63 ± 0.083,2.59 ± 0.057
KILNLEKPLILADYIVE [NUT1],1.58 ± 0.1,1.56 ± 0.061,1.22 ± 0.18,1.3 ± 0.07
TRVHQLMLEDAVTEREV [MCD1],3.35 ± 0.22,2.92 ± 0.16,2.36 ± 0.23,2.89 ± 0.12
KTRVGSVTAQVYKIALR [RPC82],1.27 ± 0.11,1.49 ± 0.068,1.5 ± 0.16,1.15 ± 0.12
KFLQEFINLLLNCCGSV [IRR1],2.07 ± 0.11,1.74 ± 0.091,1.57 ± 0.11,1.8 ± 0.062
SNSALFRAVGEGNAQLV [FAS1],2.15 ± 0.11,2.37 ± 0.11,2.27 ± 0.096,1.94 ± 0.09
FKYLLGVTDLFRHFIGI [ISW2],2.17 ± 0.056,1.35 ± 0.048,1.25 ± 0.12,1.3 ± 0.071
CKLFDKISFNLRLKLFL [SRB8],1.41 ± 0.069,1.23 ± 0.055,1.2 ± 0.086,1.18 ± 0.046
VSVEGVNVEKFNVEYFA [RPL6A],2.91 ± 0.069,3.21 ± 0.067,3.14 ± 0.042,3.16 ± 0.054
DRRAQRVAEKRDALLKE [RPL19A],3.19 ± 0.12,3.25 ± 0.097,3.07 ± 0.15,3.44 ± 0.067
IGVIAGGGRVDKPLLKA [RPL2A],3.2 ± 0.088,3.16 ± 0.09,3.05 ± 0.11,2.98 ± 0.066
ISYTSHIEGVVILKKNP [RPN1],2.57 ± 0.059,3.14 ± 0.078,2.87 ± 0.077,2.52 ± 0.046
KIKDVQQQIESNEEQRN [SMC3],3.22 ± 0.091,3.17 ± 0.082,3.18 ± 0.076,2.85 ± 0.11
QPQPQPQQQQQHLQFNG [YDL088C/ASM4],2.6 ± 0.036,2.78 ± 0.038,2.5 ± 0.051,2.919 ± 0.024
NIVKLCFVHRYKDVSDL [IRR1],2.68 ± 0.084,2.71 ± 0.059,2.87 ± 0.055,2.89 ± 0.058
LERLTLVFCKHITSVPI [GRR1],1.47 ± 0.057,1.42 ± 0.084,1.17 ± 0.14,1.44 ± 0.047
FPIALQWTGGRGGGHHS [FAS1],2.52 ± 0.18,1.87 ± 0.23,–,–
QKDQDGRIPLHWSVSFQ [NAS6],3.29 ± 0.093,3.33 ± 0.079,3 ± 0.13,3.06 ± 0.053
PEPSHIDQVMMSVSDND [RET1],2.43 ± 0.047,2.06 ± 0.045,2.43 ± 0.05,2.48 ± 0.042
IAPPVAPHDSEATLLTN [SNF5],2.99 ± 0.066,2.82 ± 0.068,2.93 ± 0.043,2.83 ± 0.049
SKISQMAQNKTHIPQTN [YLR018C/POM34],1.83 ± 0.24,2.21 ± 0.12,2.07 ± 0.1,1.95 ± 0.07
IFVSILSDRANKNQDAF [ARP9],2.85 ± 0.057,2.39 ± 0.058,2.53 ± 0.066,2.87 ± 0.056
NERLEINQEKPVKLDEN [SIR4],3.19 ± 0.17,3.05 ± 0.12,3.44 ± 0.086,3.3 ± 0.12
QLSQDEHSQVEQTCVKL [SRP72],3.17 ± 0.16,3.24 ± 0.064,3.1 ± 0.094,3.25 ± 0.084
VDKNFDKLELYVLRNVL [MTW1],3.01 ± 0.096,2.43 ± 0.078,2.81 ± 0.12,3.05 ± 0.071
KDNVEHLVMRAISLGLL [RPN9],2.43 ± 0.075,2.92 ± 0.074,2.48 ± 0.071,2.76 ± 0.059
APHDSEATLLTNSNNGS [SNF5],3.05 ± 0.065,2.85 ± 0.061,2.91 ± 0.045,2.97 ± 0.043

Sequence,protein stability index (doa10∆),protein stability index (pdr5∆),protein stability index (san1∆),protein stability index (ubr1∆)
TIRYPDPNIKVNDTVKI [RPS4A],2.48 ± 0.09,2.87 ± 0.097,2.75 ± 0.1,2.71 ± 0.066
GGQHHHRINMDKYHPGY [RPL28],3.23 ± 0.1,3.36 ± 0.056,3.14 ± 0.1,2.99 ± 0.055
GSIFTHETTFMTAMRLM [YML031W/NDC1],1.88 ± 0.072,2.53 ± 0.083,2.71 ± 0.065,2.64 ± 0.081
ALNKISKYYPGVIIKVE [SNU114],2.04 ± 0.057,1.53 ± 0.07,1.9 ± 0.085,2.33 ± 0.063
NLLKFITSNHKSSVPGS [RPN3],2.55 ± 0.11,2.77 ± 0.1,2.07 ± 0.067,2.41 ± 0.087
QANSNLTLLERKWVIFI [NUT1],1.85 ± 0.055,1.92 ± 0.044,1.67 ± 0.094,2.19 ± 0.061
KLLQLFLTPMDSIDLAP [YML103C/NUP188],1.9 ± 0.071,1.54 ± 0.062,1.76 ± 0.092,1.36 ± 0.038
LGGEINDNEDDDEEYDY [BRR2],3.5 ± 0.17,3.34 ± 0.081,3.28 ± 0.065,3.43 ± 0.1
EPNLAAQQDSTNVRLYS [ECM29],2.88 ± 0.11,2.9 ± 0.063,2.81 ± 0.089,2.37 ± 0.074
IMYQQMLKYRRLFIGDQ [SNF2],1.45 ± 0.052,1.22 ± 0.04,1.3 ± 0.12,1.42 ± 0.03
GDVGKNHITEFPSIPLP [RPC31],3.21 ± 0.087,3.23 ± 0.087,3.31 ± 0.079,3.22 ± 0.093
KANIFQVIKNEVCAKMP [SSN2],2.7 ± 0.14,2.27 ± 0.084,1.4 ± 0.21,1.84 ± 0.09
ATAFNKTRGPFHFRAPS [RPL16A],2.67 ± 0.12,3.07 ± 0.1,2.56 ± 0.094,2.71 ± 0.072
SMMSDGIEHFDIPPPAI [RPO31],1.97 ± 0.16,1.81 ± 0.13,1.92 ± 0.17,2.06 ± 0.15
NFIIWINSIDTTESSDL [GRR1],2.46 ± 0.044,2.38 ± 0.047,2.61 ± 0.055,2.88 ± 0.037
RLKVFEGIPPPYDKKKR [RPL16A],2.99 ± 0.087,2.9 ± 0.094,3.05 ± 0.065,2.97 ± 0.08
SAKGPEIIPLQDYYIIG [MED6],3.18 ± 0.098,3.14 ± 0.054,3.14 ± 0.044,3.31 ± 0.063
TILQHLSEAWRCWKANI [PRP8],3.33 ± 0.081,3.36 ± 0.083,3.5 ± 0.047,3.32 ± 0.068
LLVNPDIDLETYSFIDN [YML103C/NUP188],2.79 ± 0.059,2.6 ± 0.048,2.66 ± 0.056,2.6 ± 0.038
SDINQNDDSSSMNATMR [YDL088C/ASM4],2.88 ± 0.09,2.98 ± 0.075,2.76 ± 0.073,2.69 ± 0.054
EETDDEDKQNIEINEDN [RRI2],3.52 ± 0.08,3.25 ± 0.07,3.26 ± 0.045,3.25 ± 0.038
KPSKPFNVDDVLKFTFT [MED8],3.1 ± 0.061,2.83 ± 0.051,3.03 ± 0.034,2.74 ± 0.039
PLAAGNFVSEKGDLRRG [RPC53],–,3.4 ± 0.19,3.31 ± 0.17,3.24 ± 0.11
SPELSLQRHLSLGIRPC [RRP43],2.54 ± 0.041,2.65 ± 0.053,2.73 ± 0.052,3.06 ± 0.048
NKASLAQYEVLANYLTS [QCR2],2.42 ± 0.063,2.41 ± 0.051,2.5 ± 0.075,2.64 ± 0.081
YINGKATALANLRKSRG [RPO31],3 ± 0.067,3.13 ± 0.075,2.81 ± 0.064,3 ± 0.067
